Data from the supplement of paper PMC10724198.
± gives the standard deviation of the averaged measurements.

What was measured:
Saccharomyces cerevisiae [1] = assay: protein stability index of tFT-peptide fusion (C-terminal peptide) (PSI (0-1 scale)); higher = more stable (slower turnover)
Protocol: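 MPS profiling in S. cerevisiae of the tFT-X12 degron library: putative degron peptides plus stable controls, 12 aa, fused to the C-terminus of a sfGFP-mCherry timer. Cells are FACS-sorted into 8 mCherry/sfGFP bins and deep-sequenced. PSI runs from 0 (unstable) to 1 (stable). Backgrounds are wild type, das1Δ and doa10Δ at 30 °C, and wild type, das1Δ, cdc34-1 and cdc53-1 at 37 °C; 2-3 technical replicates each.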

Saccharomyces cerevisiae [2] = assay: as above; details: genetic background: wild type; temperature: 30 C
[3] = genetic background: cdc34-1, temperature: 37 C
[4] = genetic background: cdc53-1, temperature: 37 C
[5] = genetic background: das1 deletion, temperature: 30 C
[6] = genetic background: das1 deletion, temperature: 37 C
[7] = genetic background: doa10 deletion, temperature: 30 C
[8] = genetic background: wild type, temperature: 30 C
[9] = genetic background: wild type, temperature: 37 C
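Also: PSI is a weighted mean of sequencing reads over stability bins, variants kept only with over 10 reads, mCherry proximal and sfGFP distal, peptide attached via GGGS linker.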

Row | Sequence | protein stability index (Saccharomyces cerevisiae [1]; [3]) | protein stability index (Saccharomyces cerevisiae [1]; [4]) | protein stability index (Saccharomyces cerevisiae [1]; [5]) | protein stability index (Saccharomyces cerevisiae [1]; [6]) | protein stability index (Saccharomyces cerevisiae [1]; [7]) | protein stability index (Saccharomyces cerevisiae [1]; [8]) | protein stability index (Saccharomyces cerevisiae [1]; [9]) | protein stability index (Saccharomyces cerevisiae [2])
1 | FSVTTLTILCLR | 0.305 ± 0.017 | 0.329 ± 0.011 | 0.273 ± 0.029 | 0.394 ± 0.017 | 0.49 ± 0.061 | 0.277 ± 0.02 | 0.382 ± 0.0086 | 0.3497 ± 0.0014
2 | FSYLSFLPSLAA | 0.545 ± 0.049 | 0.562 ± 0.034 | 0.466 ± 0.031 | 0.599 ± 0.017 | 0.442 ± 0.0053 | 0.468 ± 0.0066 | 0.5654 ± 0.0021 | 0.527 ± 0.048
3 | FTFPLPPSLLLV | 0.378 ± 0.023 | 0.389 ± 0.0036 | 0.322 ± 0.021 | 0.456 ± 0.011 | 0.2603 ± 0.00082 | 0.233 ± 0.028 | 0.37 ± 0.0071 | 0.347 ± 0.017
4 | FTGLCQGLWLGW | 0.691 ± 0.019 | 0.743 ± 0.014 | 0.658 ± 0.059 | 0.775 ± 0.02 | 0.684 ± 0.039 | 0.649 ± 0.013 | 0.7501 ± 0.0044 | 0.738 ± 0.025
5 | FVCLCGFLQVLS | 0.517 ± 0.018 | 0.564 ± 0.038 | 0.395 ± 0.036 | 0.632 ± 0.04 | 0.3687 ± 0.0013 | 0.411 ± 0.028 | 0.526 ± 0.028 | 0.489 ± 0.0078
6 | FVLWWGWSWLVV | 0.213 ± 0.01 | 0.30626 ± 6.5e-05 | 0.173 ± 0.027 | 0.318 ± 0.0055 | 0.152 ± 0.0023 | 0.16 ± 0.016 | 0.2824 ± 0.00063 | 0.235 ± 0.019
7 | FVRVFLRLGVVS | 0.14 ± 0.024 | 0.17 ± 0.039 | 0.194 ± 0.035 | 0.302 ± 0.019 | 0.175 ± 0.0045 | 0.177 ± 0.022 | 0.256 ± 0.0033 | 0.299 ± 0.027
8 | FVSVWVFLVSSF | 0.258 ± 0.025 | 0.381 ± 0.019 | 0.248 ± 0.032 | 0.457 ± 0.014 | 0.194 ± 0.017 | 0.225 ± 0.035 | 0.401 ± 0.039 | 0.312 ± 0.024
9 | FVVQSLNQMRLN | 0.693 ± 0.025 | 0.727 ± 0.02 | 0.656 ± 0.035 | 0.718 ± 0.019 | 0.354 ± 0.0096 | 0.379 ± 0.025 | 0.62 ± 0.025 | 0.441 ± 0.034
10 | FVYFLLVVCFAF | 0.1671 ± 0.0012 | 0.242 ± 0.014 | 0.184 ± 0.028 | 0.274 ± 0.0017 | 0.157 ± 0.0085 | 0.166 ± 0.021 | 0.249 ± 0.017 | 0.208 ± 0.011
11 | FWESHVLPYRLL | 0.654 ± 0.036 | 0.78233 ± 0.00013 | 0.644 ± 0.014 | 0.7799 ± 0.0022 | 0.19 ± 0.008 | 0.223 ± 0.018 | 0.465 ± 0.028 | 0.239 ± 0.045
12 | FWFLWAKMLLSC | 0.253 ± 0.015 | 0.212 ± 0.064 | 0.252 ± 0.032 | 0.377 ± 0.0081 | 0.0958 ± 0.02 | 0.109 ± 0.027 | 0.138 ± 0.023 | 0.175 ± 0.022
13 | FWWVGCGWCRWG | 0.619 ± 0.019 | 0.73 ± 0.023 | 0.602 ± 0.036 | 0.708 ± 0.011 | 0.2446 ± 0.0022 | 0.269 ± 0.025 | 0.4351 ± 0.00096 | 0.378 ± 0.011
14 | FYPFHVFCLLIF | 0.18 ± 0.028 | 0.177 ± 0.037 | 0.254 ± 0.017 | 0.361 ± 0.012 | 0.18 ± 0.023 | 0.162 ± 0.028 | 0.228 ± 0.0053 | 0.243 ± 0.029
15 | GAICCFCCYLVF | 0.554 ± 0.0089 | 0.625 ± 0.026 | 0.505 ± 0.028 | 0.626 ± 0.035 | 0.463 ± 0.025 | 0.47 ± 0.014 | 0.597 ± 0.031 | 0.514 ± 0.043
16 | GALWPGALRFLN | 0.587 ± 0.045 | 0.747 ± 0.05 | 0.671 ± 0.023 | 0.81 ± 0.022 | 0.101 ± 0.014 | 0.104 ± 0.015 | 0.195 ± 0.035 | 0.171 ± 0.026
17 | GCLGYTLSCFTY | 0.563 ± 0.014 | 0.64 ± 0.038 | 0.525 ± 0.051 | 0.626 ± 0.0015 | 0.519 ± 0.019 | 0.51 ± 0.027 | 0.643 ± 0.015 | 0.401 ± 0.015
18 | GCVVLNTVAFIC | 0.492 ± 0.0084 | 0.583 ± 0.017 | 0.448 ± 0.025 | 0.625 ± 0.0075 | 0.108 ± 0.0055 | 0.127 ± 0.019 | 0.136 ± 0.018 | 0.167 ± 0.037
19 | GELDVRKLLKYF | 0.688 ± 0.02 | 0.718 ± 0.043 | 0.669 ± 0.011 | 0.768 ± 0.019 | 0.154 ± 0.034 | 0.172 ± 0.036 | 0.383 ± 0.0041 | 0.342 ± 0.086
20 | GFAFFIGLSFAF | 0.559 ± 0.015 | 0.588 ± 0.012 | 0.459 ± 0.025 | 0.5794 ± 0.0051 | 0.465 ± 0.0074 | 0.461 ± 0.01 | 0.565 ± 0.011 | 0.475 ± 0.034
21 | GFFCVWSLLFFN | 0.328 ± 0.045 | 0.395 ± 0.016 | 0.262 ± 0.045 | 0.449 ± 0.018 | 0.218 ± 0.031 | 0.187 ± 0.021 | 0.385 ± 0.005 | 0.283 ± 0.016
22 | GFFLCTCIRFWV | 0.452 ± 0.018 | 0.518 ± 0.034 | 0.386 ± 0.027 | 0.544 ± 0.01 | 0.2478 ± 0.0011 | 0.254 ± 0.028 | 0.421 ± 0.018 | 0.316 ± 0.016
23 | GFLRTVHFLLLG | 0.634 ± 0.1 | 0.675 ± 0.0077 | 0.575 ± 0.012 | 0.721 ± 0.037 | 0.225 ± 0.0044 | 0.251 ± 0.035 | 0.4702 ± 0.0038 | 0.354 ± 0.054
24 | GFNIFFFFFFFV | 0.21 ± 0.051 | 0.223 ± 0.035 | 0.202 ± 0.02 | 0.297 ± 0.019 | 0.281 ± 0.0099 | 0.173 ± 0.006 | 0.247 ± 0.021 | 0.326 ± 0.0089
25 | GFPFLCSFLLAS | 0.384 ± 0.0044 | 0.412 ± 0.0058 | 0.298 ± 0.04 | 0.472 ± 0.011 | 0.253 ± 0.005 | 0.291 ± 0.026 | 0.453 ± 0.005 | 0.382 ± 0.013
26 | GFPFLFILYFLC | 0.161 ± 0.03 | 0.257 ± 0.013 | 0.224 ± 0.02 | 0.385 ± 0.0061 | 0.111 ± 0.0087 | 0.0763 ± 0.036 | 0.105 ± 0.0019 | 0.158 ± 0.019
27 | GGGAGVVWVRLG | 0.5376 ± 0.0049 | 0.732 ± 0.022 | 0.642 ± 0.0084 | 0.7415 ± 0.0037 | 0.112 ± 0.0043 | 0.12 ± 0.027 | 0.166 ± 0.011 | 0.235 ± 0.035
28 | GGGVGGAVVLFW | 0.651 ± 0.023 | 0.764 ± 0.029 | 0.527 ± 0.016 | 0.718 ± 0.0021 | 0.528 ± 0.01 | 0.565 ± 0.027 | 0.716 ± 0.0033 | 0.408 ± 0.013
29 | GGGWCVWMVWFG | 0.482 ± 0.036 | 0.568 ± 0.0063 | 0.411 ± 0.03 | 0.595 ± 0.011 | 0.23 ± 0.006 | 0.261 ± 0.027 | 0.481 ± 0.036 | 0.401 ± 0.024
30 | GGIRLRVRFFVI | 0.584 ± 0.061 | 0.658 ± 0.011 | 0.53 ± 0.026 | 0.6152 ± 0.0058 | 0.158 ± 0.0059 | 0.168 ± 0.023 | 0.236 ± 0.016 | 0.247 ± 0.019
